One molecule from US20220308056A1 (OMEROS, published 2022) can be followed below.

The assay has as its target T1, MASP-2/C1-INH complex (fluid-phase, from human serum or plasma) (human, UniProt O00187 16-686; P05155 22-500).
T1 construct: also called C1-INH/MASP-2 complex
Put plainly: sandwich ELISA; mAb coated as capture, anti-C1-INH polyclonal detection, mannan-activated human serum. A general note: ELISA stands for enzyme-linked immunosorbent assay.

T1 sequence (O00187 16-686, chain 1 of 2): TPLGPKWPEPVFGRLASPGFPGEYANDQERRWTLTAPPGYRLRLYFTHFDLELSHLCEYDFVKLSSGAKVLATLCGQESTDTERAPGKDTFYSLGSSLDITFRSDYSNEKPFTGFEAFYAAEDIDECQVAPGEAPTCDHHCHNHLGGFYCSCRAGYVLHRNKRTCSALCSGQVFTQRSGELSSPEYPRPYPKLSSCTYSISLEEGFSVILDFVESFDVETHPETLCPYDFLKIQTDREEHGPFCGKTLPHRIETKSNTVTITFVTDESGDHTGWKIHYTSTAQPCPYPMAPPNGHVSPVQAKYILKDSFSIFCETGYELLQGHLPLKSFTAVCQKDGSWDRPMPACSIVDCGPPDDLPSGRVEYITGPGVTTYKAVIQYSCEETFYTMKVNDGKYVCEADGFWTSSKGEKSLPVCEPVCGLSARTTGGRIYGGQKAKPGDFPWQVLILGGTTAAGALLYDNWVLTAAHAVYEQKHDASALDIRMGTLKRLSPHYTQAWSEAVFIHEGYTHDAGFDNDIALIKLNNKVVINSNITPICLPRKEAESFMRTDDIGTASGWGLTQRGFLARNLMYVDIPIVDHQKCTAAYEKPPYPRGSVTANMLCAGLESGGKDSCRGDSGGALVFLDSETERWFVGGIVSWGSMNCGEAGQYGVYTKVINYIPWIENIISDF
T1 sequence (P05155 22-500, chain 2 of 2): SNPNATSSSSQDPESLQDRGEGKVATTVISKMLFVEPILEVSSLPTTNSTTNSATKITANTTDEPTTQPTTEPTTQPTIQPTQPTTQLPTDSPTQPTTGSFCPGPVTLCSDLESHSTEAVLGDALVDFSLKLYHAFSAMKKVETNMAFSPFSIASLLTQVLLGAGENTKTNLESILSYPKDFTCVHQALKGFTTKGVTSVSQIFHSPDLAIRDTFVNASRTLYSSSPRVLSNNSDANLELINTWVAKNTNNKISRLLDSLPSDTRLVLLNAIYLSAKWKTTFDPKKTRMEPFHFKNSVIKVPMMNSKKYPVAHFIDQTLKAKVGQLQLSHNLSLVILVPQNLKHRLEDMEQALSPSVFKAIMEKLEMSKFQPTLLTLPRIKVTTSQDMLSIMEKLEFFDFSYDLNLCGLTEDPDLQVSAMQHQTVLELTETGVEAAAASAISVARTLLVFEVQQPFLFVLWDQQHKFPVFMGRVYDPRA
Protocol: The microtiter plate was blocked with 280 μl/well of 1% (w/v) BSA in TBS buffer for 1 hr at RT. (ii) Activated control serum was prepared by diluting pooled normal human serum (NHS) to 20% v/v in Tris-buffered saline (TBS; 10 mM Tris-C₁, 140 mM NaCl, pH 7.4) with 5 mM Ca²⁺. Mannan-agarose (100 uL, Sigma cat. M9917) was washed twice with five volumes of TBS/Ca²⁺, and resuspended to 100 μl in the same buffer. 500 μl of 20% serum was added to the 100 μl of mannan-agarose and incubated at room temperature (RT) with gentle shaking or rotation for 30 minutes. EDTA was then added to an end concentration of 10 mM and incubated for a further 2 minutes. The agarose was then spun down and the activated serum was aspirated off and stored at −20° C. (iii) Serial dilutions were prepared from the activated control serum over a range of 0.1% to 20% and the in TBS/Ca²⁺. The blocking buffer was discarded and 100 ul/well of samples or control sera was added to the plate and incubated for 1 hour at room temperature. […] (v) The plate was then washed 3× as described above. 100 μl/well anti-rabbit HRP (Sigma, 1:5000) was added and incubated for a further 45 min. (vi) The plate was then washed 3× as described above and 100 μl/well TMB substrate was added. When blue color developed, 50 μl/well 2N H₂SO₄ was added to stop the reaction and measured at the OD₄₅₀ nm.

B1: anti-MASP-2 mAb clone #C7 (antibody, V domains shown)
VH: EVKLVESGGGLVKPGGSLKLSCAASGFTFSSYLMSWVRQTPEKRLEWVATISGGGGNTYHPDSMKGRFTISRDNAKNTLYLQMSSLRSEDTALYYCARHGDFGNYFDYWGQGTTLTVSS
VL: DIVMSQSPSSLAVSAGEKVTMSCKSSQSLLNSGTQKNYLAWYQQKPGQSPKLLIYWASTRESGVPDRFTGSGSGTDFTLTISSVQAEDLAVYYCKQSYNLFTFGAGTKLELKR
notes: From hybridomas of immunized MASP-2 KO mice; also called mAb #C7; mAb #7
Turning to B1, the binding result is reported as “binds”.
